Source: the nanobody polyreactivity screen of Harvey et al. (2022)

Assay: yeast display, Sf9 membrane polyspecificity reagent, FACS + sequencing; frameworks hold sequencing errors
In short: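 Galactose-induced (36–48 hours) yeast carrying a synthetic nanobody display library were exposed to 10% biotinylated, detergent-solubilized Sf9 membrane reagent at 4 °C for 1 hour. FACS followed streptavidin microbead enrichment, using low and high (top ~1%) gates for expression (anti-HA) and reagent binding (streptavidin). Colony PCR, MiSeq 2 × 250 sequencing and CDR-length filtering followed. Labels for polyreactivity reflect the gate of origin.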

Row | Sequence | polyreactivity (PSR sort gate)
1 | QVQLVESGGGLVQAGGRLRLSCAASGSTFGTYAMGWYRHAPGKERELVAAITRSGGSTYYADSVKGRFTISRDNAKNTVYLQMNSLKPDDTAVFYCAAVSKGYYYWGQGTQVTVSS | high polyreactivity
2 | QVQLVESGGGLVQAGGRLRLSCAASGSTFGYYAMGWYRQAPGKERELVAAITFSVGGTYYADSVKGRFTISRDNAKNTVYLQMNSLKPEDTAVYYCNVDYYVPPAGVTRTGDDVYWGKGTQVTVSS | low polyreactivity
3 | QVQLVESGGGLVQAGGRLRLSCAASGSTFLQNAMGWYRQAPGKEREFVAAISRSGGSTYYADSVKGRFTISRDNAKNTVYLQMNSLKPEDTAVYYCARRYWPGSAYWIYDYWGQGTQVTVSS | high polyreactivity
4 | QVQLVESGGGLVQAGGRLRLSCAASGSTFLVYAMGWYRQAPGKERELVAAIDSGVSTYYADSVKGLFTISRDNAKNTVYLQMNSLKPEDTAVYYCNGYDYWGQGTQVTVSS | low polyreactivity
5 | QVQLVESGGGLVQAGGRLRLSCAASGSTFRSNVMGRYRQATGKERELVAAITSGSITNYADSVKGRFTISRDNAKNTVYLQMNSLKPEDTAVYYCAVETYVYGRMGYLGQGTQVTVSS | high polyreactivity
6 | QVQLVESGGGLVQAGGRLRLSCAASGSTLEINGMGWYRQAPGKEREFVADISIGGDTNYADSVKGRFTISRDNAKNTEMNSLKPEDTAVYYCNTDYFGSLVVVIFDYWGQGTQVSVSS | low polyreactivity
7 | QVQLVESGGGLVQAGGRLRLSCAASGSTLYAYGMGWYRQAPGKERELVAAIRTGGSTYYADSVKGRFTISRDNAKITVYLQMNSLKPEDTAVYYCAADHGYQYGYWGQGTQVTVSS | low polyreactivity
8 | QVQLVESGGGLVQAGGRLRLSCAASGSTSVYYARGWYRQAPGKERELVAGITSGGNTNYADSVKGRFTISRDNAKNTVYFQMISLNPEDTSVYYCNAVYIVTVGWIRLGSYYYWGQGTQVTVSS | low polyreactivity
9 | QVQLVESGGGLVQAGGRLRLSCAASGSTVVFNAMGWYRQAPGKERELVAAISKSGGSTYYADSVKGRFTISRDNAKNTVYLQMNSLKPEDTAVYYCNRVSRKILDGDYDYWGQGTQVTVSS | high polyreactivity
10 | QVQLVESGGGLVQAGGRLRLSCAASGYIFGWNAMGWYRQAPGKERELVAAISSGGNTKYADSVKGRFTISRDNAKNTVYLQMNSLKPEDTAVYYCNADFRVYIPHVPYFVDFDYWGQGTQVTVSS | low polyreactivity
11 | QVQLVESGGGLVQAGGRLRLSCAATGRTFLAYAMGWYREAPGKERELVAAITIGGGTYADSVKGRFTISRDNAKNTVYLQMNSLKQEDTAVYYCAKPGWYDGDYWGQGTQVTVSS | low polyreactivity
12 | QVQLVESGGGLVQAGGRLRLSCAATGSIFRGYAMGWYRQAPGKERELVAAISYRGGSTYYADSVKGRFTISRDNAKNTVYLQMNSLKPEDTAVDYWAAVYSHYWWFDYWGQGTQVTVSS | high polyreactivity
13 | QVQLVESGGGLVQAGGRLRLSCAPSGIIFQQYAMGWYRQAPGKERELVAAISRGGTRTYYADSVKGRFTISRDNAKNTVYLLMNSLKPEDTAVDYCAADRGYFSYDYWGQGTQVTVSS | high polyreactivity
14 | QVQLVESGGGLVQAGGRLRLSCAPSGSTFPPYAMGWYRQAPGKERELVADITRRGASTYYADSVKGRFTISRDNAKNTVYLQMNSLKPEDTAVYYCAARFYYQYYSGFDYWGQGTQVTVST | high polyreactivity
15 | QVQLVESGGGLVQAGGRLRLSCPASGGTFGYNAMGWYRQAPGKERELVAAIRNGGSTYFADSVKGRFTISRDNAKNTVYLQMNSLKPEESAVYYCAAGPRGTGKYYWGQGTQVTVSS | high polyreactivity
16 | QVQLVESGGGLVQAGGRLRLSCPASGRIFSLYAMGWYRQAPGKERELVAVISSTGVSSHYADSVKGRFTISRDNAKYTVYLLMNSLNPEDTAVYYCNARWSFPRWGYEYGYWGQGTQVTVSS | high polyreactivity
17 | QVQLVESGGGLVQAGGRLRLSCPASGRTFRGYARGWYRQAPRKERELLAAITSGGSTNYADSVKGRFTISRDNAKNTVYLQKKSLKPEDTAVYYCAADSWFYGGEYKLGYYWGQGTQVSVSS | low polyreactivity
18 | QVQLVESGGGLVQAGGRLRLSFAASGITFYVYTMGWYRQAPGKERELVPAISTTGSTNYADSVKGRFTISRDNAKNTVYLQMNSLKPEDTAVYYCNAKYYWLVFEYDYWGQGTQVTVSS | high polyreactivity
19 | QVQLVESGGGLVQAGGRLRLSGAASGSIYFRNVMGWYRQAPGKERELVAAITWSGGGTYYPDSVKGRFTISRDNAKNTVYLQMNSLQPEDTAFYYCAARSPTIRYGAGYWGQVTQVTVSS | low polyreactivity
20 | QVQLVESGGGLVQAGGRLRLSGAASGSTFGGYAMGWYRQAPGKERELVASINYGGDTTYYADSVKGRFTISRDNAKNTVYLQMNSLKPEDTAVYYCATDGTTPTPRYAFVRFDHWGQGTQVTVSS | low polyreactivity
21 | QVQLVESGGGLVQAGGRLRLSSAASGRIFTNYAMGWYRQAPGKERELVARISKRGGSTYYADSVKGRLTFSRDNAKNTVYLQMNSLKPEDTAVYYCNAVSNLYYYWGQGTQVTVSS | high polyreactivity
22 | QVQLVESGGGLVQAGGRLRLSSAASGSTFPYNAMGWYRQAPGKERELVADITSGSSTYYADSGKGRFTISRDNAKNTVYLQMNSLKPEDTAVYYCAATYFVWLNAGGRGYWGQGTQVTVSS | low polyreactivity

Row | Sequence | polyreactivity (PSR sort gate)
23 | QVQLVESGGGLVQAGGRLRLTCAASGFIFGYYTMGWYRQAPGKERELVASITRGGSTNYADSVKGRFTISRDNAKNTVYLQMNSLKPEDTAVYYCAKRYAQTYSVSRYYYWGQGTQVTVSS | high polyreactivity
24 | QVQLVESGGGLVQAGGRLRLTCAASGSIFGTYAMGWYRQAPGKERELVAAINSGDSTYYADSVKGRFTISRDNAKNTVYLQMNSLKPEDTAVYYCAAGRYWPGDYWGQGTQVTVSS | high polyreactivity
25 | QVQLVESGGGLVQAGGRLRLTCAASGSIFWSNAMGLYRQAPGKERELVAAITSGGSTYYADSVKGRFTISRDNAKNTVYLQMNSLKPEDTAVYYCAARPEVRHQYRRYDYWGQGTQVTVSS | low polyreactivity
26 | QVQLVESGGGLVQAGGRLSLSCAASGSIFSIYAMGWYRPSPGKERELVSGIRSTVSTNYADSVKGRFTISRDNAKNTVYLQMNSLKPEDTAVYYCATGTPTAPGNYWGQGTQVTVSS | low polyreactivity
27 | QVQLVESGGGLVQAGGSHRLICAASGFIVSYHAMGWYRPAPGKESELVAAISSRGGSTYYADSVKGRFTISRDNAKNTVYLQMNSLKPEDTAVYYCATAGLTYRALRYYWGQGTQVTVSS | high polyreactivity
28 | QVQLVESGGGLVQAGGSHRLSCAASGFTFVYYAMGWYRQAPGKERELVAAISARTSGTYYADSVKGRFTISRDNAKNTVYLQMNSLTPEDTAVYYCAAGYSYVYWSESAYDYWGQGTQVTVSS | low polyreactivity
29 | QVQLVESGGGLVQAGGSHRLSCAASGFTIYGNAMGWYRQAPGKERELVAAISGSGGITYYADSVKGRFTISRDNAKNTVYLQMNSLKPEDTAVYYCAAEFWVSRSIWLYYYWGQGTQVTVSS | high polyreactivity
30 | QVQLVESGGGLVQAGGSHRLSCAASGGTFRSNAMGWYRQAPGKERELVAAITSNGGRTYYADSVKGRFTISRDNAKNTVYLQMNSLKPEDTAVYYCAALGGYRRPLYGYDYWGQGTQVTVSS | high polyreactivity
31 | QVQLVESGGGLVQAGGSHRLSCAASGGTFYYYTMGWYRQAPGKERELVAAISWSGGSTYYADSVKGRFTISRNNEKNTVYLQMKSLKPEDSAVYYCNAVYAGRFGSHYWGQCTQVTVSS | high polyreactivity
32 | QVQLVESGGGLVQAGGSHRLSCAASGIIFRFYAMGCYRQAPGTERELVAAITSSGGSTYYADSVKGRFTISRDNAKNTVYLQMNSLNPEDTAVYYCYARVFSQSHYYYWGQGTQVTLSS | high polyreactivity
33 | QVQLVESGGGLVQAGGSHRLSCAASGIISPFYAMGWYRQAPGKERELVADISTGGTTTYADSVKGRFTISRDNAKNTVYLQMNSLKPEDTAVYYCNAEVSLTYYWIVWASYDYWGQGTQVTVSS | low polyreactivity
34 | QVQLVESGGGLVQAGGSHRLSCAASGITFRRYAMGWYRQAPGKERELVARITDRGSTYYADSVKGRFTSSRDNAKNTVYLQMNSLKPEDTAVYYCAARGYRGLVQLRYGYWGQGTQVTVSS | high polyreactivity
35 | QVQLVESGGGLVQAGGSHRLSCAASGITFRWYTMGWYRQAPGKERELVAAITGSGCTTYYADSVKGRFTISRDNAKNNVYLQMYSLKPEDSAVYYCAAEFYGLVYVPPYDYWGQGTQVTVSS | high polyreactivity
36 | QVQLVESGGGLVQAGGSHRLSCAASGLNFGDNTMGWYRQAPGKERELVAAISGDVITTYADSVKGRFTISRDNAKNTVYLQMNSLKPEDTAVYYCNAEVKRYYSGLPQYFAGLGYWGQGTQVTVSS | low polyreactivity
37 | QVQLVESGGGLVQAGGSHRLSCAASGLTFRKYAMGWYRQAPGKERELVATISRNGGSTYYADSVKGRFTISRDNAKNTVYLQMNSLKPEDTAVYYCAADYYTYDYAGYGDWGQGTQVTVSS | high polyreactivity
38 | QVQLVESGGGLVQAGGSHRLSCAASGNTFYDYAMGWYRQAPGKERELVAAISSDGNTYYADSVKGRFTFSRDNAKKTVYLQMNSLKPVDTAVYYCAADAWRYYYLSWFGSIGFDYWGQGTQVTVSS | high polyreactivity
39 | QVQLVESGGGLVQAGGSHRLSCAASGRIFDKYAMGWYRQAPGKERELVATITSSGGSTYYADSVKGRFTISRDNAKNTVYLQMNSLKPEDTAVYYCAALDRTGWGYDYWGQGTQVTVSS | low polyreactivity
40 | QVQLVESGGGLVQAGGSHRLSCAASGRIFGPYTMGWYRQAPGKERELVAAISLSGGSTYYADSVKGRFTISRDNAKNTVYLQMNRLKAEDTAVYYCNADHPFPQYEGGSWGQGTQVTVSS | low polyreactivity
41 | QVQLVESGGGLVQAGGSHRLSCAASGRIFSYNSMGWYRQAPGKERELVAAITSGGSTYYADSVKGRFTISRDNAKNTVYLQMNSLKPEDTAVYYCAVRSYYFVSRYTRTLYGFDYWGQGTQVTVSS | low polyreactivity
42 | QVQLVESGGGLVQAGGSHRLSCAASGRIIHGYAMGWYRQAPGKERELVARISFSGGRTYYADSVKGRFTISRDNAKNTVYLQKNSLIPEDTAVYYCNVRVWSYYYPGRDSDYWGQGTQVTVSS | high polyreactivity
43 | QVQLVESGGGLVQAGGSHRLSCAASGRPSAVNALGWSRQAPGKERELVAAITYGGDSTFYADSVKGRFTISRDNAKNTVYLQMNSLKPEDTAVYYCNADIWFIWHSFGWGYDYWGQGTQVTVSS | low polyreactivity
